The values that follow come from paper doi:10.1101/2023.09.20.558662 (bioRxiv, 2023).

Positions count from the first letter of the chain named. In names and notes the source's numbering stands.

The data set “cryo-EM structure” concerns the molecule itself. As to the kind of experiment: cryo-EM structure.
Data set [1] has as its target CUL3 N-terminal domain (CUL3^NTD, residues 1-381) (UniProt Q13618 1-381). Description: BLI.

CUL3 N-terminal domain (CUL3^NTD, residues 1-381), sequence (Q13618 1-381): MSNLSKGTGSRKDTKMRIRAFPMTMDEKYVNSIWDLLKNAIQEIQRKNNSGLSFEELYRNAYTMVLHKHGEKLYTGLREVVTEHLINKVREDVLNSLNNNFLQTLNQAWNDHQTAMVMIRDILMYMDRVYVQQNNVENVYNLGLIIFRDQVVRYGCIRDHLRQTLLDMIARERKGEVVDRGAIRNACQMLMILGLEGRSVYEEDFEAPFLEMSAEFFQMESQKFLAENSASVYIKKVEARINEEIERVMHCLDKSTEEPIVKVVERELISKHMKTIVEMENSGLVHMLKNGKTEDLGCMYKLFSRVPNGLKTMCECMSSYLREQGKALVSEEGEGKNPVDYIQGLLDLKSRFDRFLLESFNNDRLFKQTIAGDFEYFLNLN

B1: KCTD5 (full-length, purified; SEC and cryo-EM samples) (natural protein)
chain: MAENHCELLSPARGGIGAGLGGGLCRRCSAGLGALAQRPGSVSKWVRLNVGGTYFLTTRQTLCRDPKSFLYRLCQADPDLDSDKDETGAYLIDRDPTYFGPVLNYLRHGKLVINKDLAEEGVLEEAEFYNITSLIKLVKDKIRERDSKTSQVPVKHVYRVLQCQEEELTQMVSTMSDGWKFEQLVSIGSSYNYGNEDQAEFLCVVSKELHNTPYGTASEPSEKAKILQERGSRM
Consider B1, for which the “stoichiometry N” value in the data set “cryo-EM structure” was found to be 5.

B2: Thioredoxin-fusion KCTD5 (natural protein)
chain: B1 chain
B2 came in with a dissociation constant Kd in data set [1] of 30 nM.

B3: KCTD5 L161R (natural protein)
chain: B1 chain with L161R
B3: the binding result in data set [1] is recorded as “binds”.
